No end group written: not given here. TMR = tetramethyl rhodamine dye
Legend:
Assay in all cases: fluorescence polarisation; 25 °C; unlabeled Rb^P titrated against 1.5 nM TMR-E2F1^TD or 7.5 nM TMR-E7^LxCxE; 25 mM Tris pH 8.0, 200 mM NaCl, 1 mM DTT, 0.1% Tween-20; 2 min incubation; quadratic fit; apparent Kd for the variants, Kd for WT
Conditions in all cases: both partners purified
Rb^P K530I = target: T1, Rb^P K530I (human, UniProt P06400 380-788, K530I)
T1 construct: also called variant 21
T1 sequence (looked up): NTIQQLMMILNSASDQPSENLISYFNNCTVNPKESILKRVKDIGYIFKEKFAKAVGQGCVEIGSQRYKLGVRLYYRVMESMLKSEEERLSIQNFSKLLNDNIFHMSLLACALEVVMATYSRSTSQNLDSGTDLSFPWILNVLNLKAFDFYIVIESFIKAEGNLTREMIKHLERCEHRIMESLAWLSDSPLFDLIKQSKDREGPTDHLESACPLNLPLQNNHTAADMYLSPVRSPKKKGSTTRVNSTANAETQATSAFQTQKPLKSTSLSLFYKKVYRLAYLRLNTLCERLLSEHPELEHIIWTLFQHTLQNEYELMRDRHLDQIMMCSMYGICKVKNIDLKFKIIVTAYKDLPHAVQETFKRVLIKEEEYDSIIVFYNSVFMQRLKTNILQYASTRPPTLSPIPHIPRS

Rb^P S443L = target: T2, Rb^P S443L (human, UniProt P06400 380-788, S443L)
T2 construct: also called variant 2
T2 sequence (looked up): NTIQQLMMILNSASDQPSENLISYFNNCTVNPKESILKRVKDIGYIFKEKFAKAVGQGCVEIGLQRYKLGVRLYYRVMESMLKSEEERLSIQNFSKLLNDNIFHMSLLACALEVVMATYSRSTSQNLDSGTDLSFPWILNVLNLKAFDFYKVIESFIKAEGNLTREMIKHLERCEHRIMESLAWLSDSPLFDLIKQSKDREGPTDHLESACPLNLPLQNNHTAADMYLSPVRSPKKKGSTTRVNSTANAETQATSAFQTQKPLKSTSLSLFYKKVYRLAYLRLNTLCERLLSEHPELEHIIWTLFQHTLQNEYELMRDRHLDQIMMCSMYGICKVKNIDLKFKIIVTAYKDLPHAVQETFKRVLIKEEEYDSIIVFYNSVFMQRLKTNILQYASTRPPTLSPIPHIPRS

Rb^P R741S = target: T3, Rb^P R741S (human, UniProt P06400 380-788, R741S)
T3 construct: also called variant 70
T3 sequence (looked up): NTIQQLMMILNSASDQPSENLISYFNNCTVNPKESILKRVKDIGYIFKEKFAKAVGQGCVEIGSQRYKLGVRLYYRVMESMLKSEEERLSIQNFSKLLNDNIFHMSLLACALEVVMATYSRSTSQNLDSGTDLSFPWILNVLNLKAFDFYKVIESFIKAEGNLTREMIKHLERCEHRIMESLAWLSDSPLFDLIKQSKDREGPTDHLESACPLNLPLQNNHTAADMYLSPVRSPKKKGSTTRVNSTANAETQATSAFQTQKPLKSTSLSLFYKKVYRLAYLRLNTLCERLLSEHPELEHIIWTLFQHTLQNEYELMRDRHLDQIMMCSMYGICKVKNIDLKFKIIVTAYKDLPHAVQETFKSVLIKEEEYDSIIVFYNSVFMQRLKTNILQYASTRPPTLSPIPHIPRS

Rb^P R741H = target: T4, Rb^P R741H (human, UniProt P06400 380-788, R741H)
T4 construct: also called variant 69
T4 sequence (looked up): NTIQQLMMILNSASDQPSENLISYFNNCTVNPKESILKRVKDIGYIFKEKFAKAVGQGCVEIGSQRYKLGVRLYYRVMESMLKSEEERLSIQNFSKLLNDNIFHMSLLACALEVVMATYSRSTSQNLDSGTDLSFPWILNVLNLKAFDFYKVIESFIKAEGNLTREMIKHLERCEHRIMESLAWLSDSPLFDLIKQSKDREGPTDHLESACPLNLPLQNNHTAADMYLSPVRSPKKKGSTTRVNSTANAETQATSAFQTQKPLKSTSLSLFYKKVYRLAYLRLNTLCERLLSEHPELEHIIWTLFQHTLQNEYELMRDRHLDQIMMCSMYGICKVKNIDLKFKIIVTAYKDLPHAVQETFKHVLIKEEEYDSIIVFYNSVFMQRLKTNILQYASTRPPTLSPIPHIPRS

Rb^P E539D = target: T5, Rb^P E539D (human, UniProt P06400 380-788, E539D)
T5 construct: also called variant 24
T5 sequence (looked up): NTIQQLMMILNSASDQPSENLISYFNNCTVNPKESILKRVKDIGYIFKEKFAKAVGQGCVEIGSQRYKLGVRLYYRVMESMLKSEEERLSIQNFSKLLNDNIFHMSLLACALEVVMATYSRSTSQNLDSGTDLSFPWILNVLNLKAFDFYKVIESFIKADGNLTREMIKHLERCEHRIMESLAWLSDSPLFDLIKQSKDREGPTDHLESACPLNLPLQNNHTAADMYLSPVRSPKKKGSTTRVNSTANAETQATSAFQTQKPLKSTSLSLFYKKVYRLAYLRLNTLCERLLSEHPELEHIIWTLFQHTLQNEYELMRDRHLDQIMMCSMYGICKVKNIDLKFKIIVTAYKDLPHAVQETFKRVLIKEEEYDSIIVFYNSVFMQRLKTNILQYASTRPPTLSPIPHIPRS

B1: TMR-E2F1^TD, peptide of the E2F1 transactivation domain (peptide)
peptide: {TMR}-GEGIRDLFDCDFGDLTPLD
notes: also called E2F^TD; source: synthetic peptide, bought: GenScript
Kd (Rb^P K530I): 945 nM | Kd (Rb^P S443L): 31 nM | Kd (Rb^P R741S): 32 nM | Kd (Rb^P R741H): 21 nM | Kd (Rb^P E539D): 55 nM

B2: TMR-E7^LxCxE, LxCxE peptide of the E7 oncoprotein from HPV (peptide)
peptide: DLYCYEQLN
modifications: also: TMR label, position not given here
notes: source: synthetic peptide, bought: GenScript
Kd (Rb^P K530I): 8 nM | Kd (Rb^P S443L): 9 nM | Kd (Rb^P R741S): 16 nM | Kd (Rb^P R741H): 18 nM | Kd (Rb^P E539D): 7 nM
